From US20240382586A1 (TAKIS S R L, published 2024) come the findings set out here.

Numbering of substitutions follows the chain as printed. Like-named read-outs stand apart in the source and are kept apart here.

Experiment [1] concerns the target T1, SARS-CoV-2 spike receptor-binding domain (RBD), recombinant (SARS-CoV-2, UniProt P0DTC2 319-541). The experiment is described as follows: SPR, Carterra LSA.
Experiment [2] deals with T1, SARS-CoV-2 spike receptor-binding …. The experiment is described as follows: ELISA on RBD.
The target of experiment [3] is SARS-CoV-2 spike receptor-binding domain (RBD), recombinant (SARS-CoV-2, UniProt P0DTC2 319-541). The experiment is described as follows: SPR, Carterra LSA. This is another data set of the same source. (Surface plasmon resonance follows binding to a sensor surface in real time, without labels.)
For experiment [4], the target named is T2, SARS-CoV-2 spike receptor-binding domain, wild type (RBD-6×His) (SARS-CoV-2, UniProt P0DTC2 319-541).
In experiment [5] the target is T3, full-length spike protein (coated in ELISA) (SARS-CoV-2, UniProt P0DTC2 16-1213).
For experiment [6], the target named is T2, SARS-CoV-2 spike receptor-binding …. Put plainly: ELISA, coated RBD-6His. For orientation: An ELISA detects its analyte on a solid surface through an enzyme-linked reagent.
For experiment [7] the target is unchanged. This is another data set of the same source.
The target is the same in experiment [8]. The source holds these as a separate data set.
Experiment [9] shares this target. The source holds these as a separate data set.
The target in experiment [10] is RBD-6×His protein, RBD WT of the SARS-CoV-2 spike protein (SARS-CoV-2, UniProt P0DTC2 319-541). Put plainly: ELISA on recombinant RBD.
The target in experiment [11] is T2, SARS-CoV-2 spike receptor-binding …. This is another data set of the same source.
Experiment [12] concerns the target RBD fragment of the SARS-CoV-2 spike protein (RBD WT), recombinant (SARS-CoV-2, UniProt P0DTC2 319-541). The experiment is described as follows: SPR Carterra LSA.
Experiment [13] addresses T2, SARS-CoV-2 spike receptor-binding …. The source holds these as a separate data set.
In experiment [14] the target is T3, full-length spike protein (coated in …). This is another data set of the same source.

B1: 2-5C4 (antibody, V domains shown)
VH: EVQLVESGGGLIQPGGSLRLSCAASGLTVSSNYMNWVRQAPGKGLEWVSVIYAGGSTFYADSVKGRFTISRDNSKNTLYLQMNSLRAEDTAFYYCARESYGMDVWGQGTTVTVSS
VL: EIVLTQSPATLSLSPGERATLSCRASQSISSSYLAWYQQKPGQAPRLLIYGASSRATGIPDRFSGSGSGTDFTLTISRLEPEDFAVYYCQQYGSLYTFGQGTKVEIK
With B1, the equilibrium dissociation constant (Kd) (as a rule, a measure of binding affinity in units of concentration) in experiment [1] is 0.026 nM. For the same molecule, the “A(405 nm)” value in experiment [2] stood at 2.26.

B2: 2-5D9 (antibody, V domains shown)
VH: QVQLQESGPGLVKPSETLSLTCTVSGGSISSYYWSWIRQPPGKGLEWIGYIYYTGSTNYNPSLKSRVTISVDTSKNQFSLKLRSVTAADTAVYYCAGTYDSNLLDPWGQGTLVTVSS
VL: DIQMTQSPSSLSASVGDRVTITCRASQGISNSLAWYQQKPGKAPKLLLYDVFRFESGVPSRFSGSGSGTDYTLTISSLQPDDFATYYCQQYYSTPYTFGQGTKVEIK
On to B2, for which the Kd in experiment [1] is 0.544 nM. In experiment [2], the “A(405 nm)” value was 3.49.

B3: 3-12B12 (antibody, V domains shown)
VH: EVQLQQSGAELVRPGALVKLSCKASGFNIKDYYMHWVKQRPEQGLEWIGWIDPENGNSIYDPKFQGKASITADTSFNTVNLHLSSLTSEDTAVYYCAPYYYDSTYVGTMDYWGQGTSVTVSS
VL: QIVLTQSPAIMSASPGEKVTMTCSASSSVGYMYWYQQKPGSSPRLLIYDTSNLASGVPVRFGGSGSGTSYSLTISRMEAEDAATYYCQQWSSYPPRTFGGGTKLEIK
In the case of B3, the Kd in [3] was 0.0165 nM.

B4: 2-5F8 (antibody, V domains shown)
VH: QVQLVQSGAEVKKPGASVKVSCKASGYTFTNYYMHWVRQAPGQGLEWMGVINPSGASTSYAQKFQGRVTMTRDTSTSTVYMELSSLRSEDTAVYYCASWGGNIPLYYYYGMDVWGQGTTVTVSS
VL: QSALTQPPSASGSPGQSVTISCTGTSSDVGGYNYVSWYQQHPGKAPKLMIYEVSKRPSGVPDRFSGSKAGNTASLTVSGLQAEDEADYYCTSYAGSNIWVFGGGTKLTVL
For the molecule B4, the Kd in experiment [1] was 1.5 nM. The “A(405 nm)” value in [2] came out at 3.48.

B5: 2-4G1 (antibody, V domains shown)
VH: EVQLVQSGAEVKRPGASVKVSCKASGYTFTSYGLSWVRQAPGQGLEWMGWINTYNGHTNYAQKVQGRVTLTTDTSTSTAYMELRSLRSDDTAVYYCARVESVYYGSGTCDPWGQGTLVTVSS
VL: DIQMTQSPSSLSASVGDRVTITCRASQSISSYLNWYQQKPGKAPKLLIYIASSLQSGVPSRFSGSGSGTDFTLTISSLQPEDFATYYCHQSYSSPHTFGQGTKLEIK
Take B5: the Kd in experiment [1] amounted to 14.4 nM. Besides, the “A(405 nm)” value in experiment [2] came out at 2.08.

B6: VH1/VL1 (antibody, V domains shown)
VH: EVQLQQSGAELVKPGASVKLSCTASGFNIKETYVHWVKQRPEQGLEWIGRIDPAIGDSEYDPKFQGKATVTADTSSNTAYLQLSRLTSEDTAVYYCARTWGPFFDFWGQGTTLTVSS
VL: DVVMTQTPLSLPVSLGDQASISCRSSQSLVHSHGNTFLHWYLQKPGQSPKVLIYKVSSRFSGVPDRFSGSGAGTDFTLKISRVEAEDLGVYFCSQSTHVPYTFGGGTKLEIK
notes: also called chimeric antibody 9-8F2-B11, combination VH1/VL1
B6: in [4], the EC50 (read off the curve) (in general, the concentration needed to bring the measured effect to its halfway point) was roughly 0.1 µg/mL.

B7: 9-8F2-B11 (mouse) (antibody, V domains shown)
VH: B6 VH
VL: B6 VL
B7: the IC50 (usually the point on the concentration scale where inhibition reaches its midpoint) was found to be 3.7 ng/mL in experiment [5] and 0.0137 µg/mL in experiment [6]. Moreover, the Kd in experiment [7] was 0.913 nM.

B8: humanised 9-8F2-B11 (VH3VL3) (antibody, V domains shown)
VH: QVQLVQSGAEVKKPGASVKVSCKASGFNIKETYVHWVRQAPGQGLEWMGRIDPAIGDSEYAQKFQGRVTMTRDTSISTAYMELSRLRSDDTAVYYCARTWGPFFDFWGQGTLVTVSS
VL: DIVMTQTPLSLSVTPGQPASISCKSSQSLLHSHGNTFLHWYLQKPGQSPQVLIYKVSSRFSGVPDRFSGSGSGTDFTLKISRVEAEDVGVYYCSQSTHVPYTFGQGTKLEIK
notes: also called 9-8F2-B11 humanised
The molecule B8 yielded a Kd in [8] of 2.26 nM. In [9], the “EC50 (read off the curve)” value was roughly 0.01 µg/mL.

B9: humanised antibody 9-7A4-C2 (antibody, V domains shown)
VH: EVQLQQSGAEVKKPGASVKVSCKTSGYTFTEYTMYWVRQAPGQRLEWMGGINPNNGDSSYIQKFQGRVTITRDTSASTAYMELSSLRSEDTAVYYCARDGYPNSYAMDYWGQGTLVTVSS
VL: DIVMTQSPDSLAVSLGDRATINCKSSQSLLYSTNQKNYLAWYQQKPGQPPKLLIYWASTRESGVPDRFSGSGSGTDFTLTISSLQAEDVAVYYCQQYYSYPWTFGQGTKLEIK
notes: also called humanised 9-7A4-C2
As for B9, in experiment [10], the binding result is “binds”.

B10: 9-2H7-D7 chimera (antibody, V domains shown)
VH: EVQLQQSGPELVKPGASVTISCKTSGYTFTEYTMYWVKQSHGKSLEWIGGINPYIGDTSYNQNFKGKATLTVDKSSSTAYMELRSLTSEDSAVYYCARDGYPDYSAMDFWGQGTSVTVSS
VL: DIVMSQSPSSLAVSVGEKVTMNCKSSQNLLYSSNQKNYLAWYQQKPGQSPKLLIYWASTRESGVPDRFTGSGSGTDFTLTISSVKAEDLAVYSCQQYYTYPWTFGGGTKLEIK
With B10, in experiment [11], the “EC50 (read off the curve)” value was roughly 0.05 µg/mL.

B11: 9-2H7 (antibody, V domains shown)
VH: B10 VH
VL: B10 VL
Regarding B11, the Kd in experiment [12] turned out to be 0.00977 nM.

B12: 9-2H7-D7 (mouse) (antibody, V domains shown)
VH: B10 VH
VL: B10 VL
B12: the Kd in experiment [13] was found to be 0.0515 nM. For the same molecule, the figures for the IC50 in experiment [14] and in [6] were 4.6 ng/mL and 0.0269 µg/mL, respectively.

B13: 9-7A4-C2 (mouse) (antibody, V domains shown)
VH: EVQLQQSGPELVKPGASVKISCKTSGYTFTEYTMYWVKQSHGKSLEWIGGINPNNGDSSYIQKFKGKATLTVDESSSTAYMELRSLTSEDSAVYYCARDGYPNSYAMDYWGQGTSVTVSS
VL: B10 VL with E17D, N22S, N28S, S33T, S82G, K85R, A86P, S93Y, T99S
As for B13, the IC50 in experiment [5] amounted to 2.7 ng/mL; in [6] it was 0.0133 µg/mL. This molecule yielded a Kd in [7] of 0.643 nM.

B14: 9-7A4 (antibody, V domains shown)
VH: B13 VH
VL: B10 VL with E17D, N22S, N28S, S33T, S82G, K85R, A86P, S93Y, T99S
B14: the Kd in experiment [12] was 0.735 nM.

B15: humanised antibody 9-2H7-D7 (antibody, V domains shown)
VH: QVQLQQSGAEVKKPGASVKISCKTSGYTFTEYTMYWVKQSHGKSLEWMGGINPYIGDTSYNQNFKGRVTMTRDKSTSTAYMELSSLTSEDSAVYYCARDGYPDYSAMDFWGQGTSVTVSS
VL: B10 VL with S5T, K18R, M21I, Q35N, T69S, K85Q, L89V
notes: also called humanised 9-2H7-D7
For B15, in experiment [10], the binding result is listed as “binds”.
